# B1: ANAC016 intron 1 MDM1 probe (dsDNA)
# DNA 1: GATGTAGTTGAGTATATGACAAGGAAAAGTTTTGGTTGTT
# DNA 2: AACAACCAAAACTTTTCCTTGTCATATACTCAACTACATC
# B2: ANAC016 intron 1 MDM2 probe (dsDNA)
# DNA 1: GATTTGTTGAGTATATGACAAGGAAACGTCTTTATTCACT
# DNA 2: AGTGAATAAAGACGTTTCCTTGTCATATACTCAACAAATC
# How the values were obtained:
# [1] = target: T1, ANAC017 (lacking C-terminal transmembrane domain) (Arabidopsis thaliana, UniProt Q9XIC5 1-525); experiment: EMSA; stronger than MDM2; Binding reactions as in Ng et al. 2013 (buffer, pH, temperature not given); 12% acrylamide 0.5x TBE gels; conditions: protein: recombinant; tags: GST (pDEST15); chain copies: 2; label: 32P 5' end (T4 PNK)
# T1 sequence: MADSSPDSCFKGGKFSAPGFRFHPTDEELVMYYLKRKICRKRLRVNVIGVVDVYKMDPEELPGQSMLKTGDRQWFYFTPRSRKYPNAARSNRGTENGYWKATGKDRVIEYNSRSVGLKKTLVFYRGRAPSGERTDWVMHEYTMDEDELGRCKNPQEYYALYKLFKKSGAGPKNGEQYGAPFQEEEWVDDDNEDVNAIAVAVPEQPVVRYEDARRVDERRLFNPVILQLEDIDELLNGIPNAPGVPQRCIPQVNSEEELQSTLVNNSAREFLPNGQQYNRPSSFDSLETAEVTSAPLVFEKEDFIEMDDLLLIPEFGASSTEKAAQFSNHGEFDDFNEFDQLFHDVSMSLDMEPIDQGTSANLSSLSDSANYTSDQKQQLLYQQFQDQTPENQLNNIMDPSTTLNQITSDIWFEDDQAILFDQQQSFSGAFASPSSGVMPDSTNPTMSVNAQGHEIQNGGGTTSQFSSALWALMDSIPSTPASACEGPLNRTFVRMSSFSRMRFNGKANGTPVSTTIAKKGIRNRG
# [2] = target: T1, ANAC017 (lacking C-terminal …); experiment: EMSA; clear shift, less than MDM1; Binding reactions as in Ng et al. 2013 (buffer, pH, temperature not given); 12% acrylamide 0.5x TBE gels; conditions: protein: recombinant; tags: GST (pDEST15); chain copies: 2; label: 32P 5' end (T4 PNK)
Binder,binding result [1],binding result [2]
B1,binds,–
B2,–,binds

# — paper PMC8331134, “Increased expression of ANAC017 primes for accelerated senescence”
